Experimental data reported in PMC9234707 (2022).

B1: BMP15 (protein)
chain 1: PENNQCSLHPFQISFRQLGWDHWIIAPPFYTPNYCKGTCLRVLRDGLNSPNHAIIQNLINQLVDQSVPRPSCVPYKYVPISVLMIEANGSILYKEYEGMIAESCTCR
chain 2: B1 chain 1
B2: Nodal (protein)
chain 1: DRSQLCRKVKFQVDFNLIGWGSWIIYPKQYNAYRCEGECPNPVGEEFHPTNHAYIQSLLKRYQPHRVPSTCCAPVKTKPLSMLYVDNGRVLLDHHKDMIVEECGCL
chain 2: B2 chain 1
B3: ActivinB (protein)
chain 1: GLECDGRTNLCCRQQFFIDFRLIGWNDWIIAPTGYYGNYCEGSCPAYLAGVPGSASSFHTAVVNQYRMRGLNPGTVNSCCIPTKLSTMSMLYFDDEYNIVKRDVPNMIVEECGCA
chain 2: B3 chain 1
B4: GDF11 (protein)
chain 1: GLDCDEHSSESRCCRYPLTVDFEAFGWDWIIAPKRYKANYCSGQCEYMFMQKYPHTHLVQQANPRGSAGPCCTPTKMSPINMLYFNDKQQIIYGKIPGMVVDRCGCS
chain 2: B4 chain 1
B5: BMP10 (protein)
chain 1: AKGNYCKRTPLYIDFKEIGWDSWIIAPPGYEAYECRGVCNYPLAEHLTPTKHAIIQALVHLKNSQKASKACCVPTKLEPISILYLDKGVVTYKFKYEGMAVSECGCR
chain 2: B5 chain 1

molecular target: ACVR2A (Homo sapiens (Human), UniProt P27037); test: SPR, receptor-Fc dimer captured (avidity), single 80 nM injections
Sequence (P27037 26-118): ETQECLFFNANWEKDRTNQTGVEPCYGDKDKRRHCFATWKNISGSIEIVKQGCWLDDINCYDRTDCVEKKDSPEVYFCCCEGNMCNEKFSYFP

Row | Kd [pM] | Binder
1 | > 80000 | B1
2 | > 80000 | B2
3 | 53 | B3
4 | 52 | B4
5 | 1000 | B5
